Results: patent publication US20220306765A1 (SUZHOU TRANSCENTA THERAPEUTICS, published 2022)

Assays:
human CLDN18.2 [1] = molecular target: T1, human CLDN18.2 (human); test: FACS, NUGC4 cells
T1 construct: also called hCLDN18.2; Claudin-18 splice variant 2

human CLDN18.2 [2] = molecular target: T1, human CLDN18.2; test: FACS, HEK293-CLDN18.2 cells
[3] = molecular target: T2, human CLDN18.2-mRFP1, wild-type (human); test: FACS, transfected HEK293, 10 µg/ml antibody;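 further: antibody binding read by flow cytometry with a FITC-labelled anti-human IgG secondary, gated on RFP-positive cells, each mutant signal expressed against wild-type CLDN18.2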
T2 construct: human CLDN18.2 (amino acid 1-261) fused to mRFP1 (amino acid 1-225), transiently expressed in HEK293 cells; also called wild-type human CLDN18.2-mRFP
Procedure: (§1) The transfected HEK293-CLDN18.2 or HEK293-CLDN18.1 cell were resuspended in PBS with 2% BSA at density of 10\hat{ }5/well, 100 μl/well. […] Next, cells were washed 3 times by FACS washing buffer and incubated with 100 μl/well goat anti-hIgG (H+L)-FITC (1:200 dilution) at 4° C. for another 30 min. Finally, cells were washed 3 times by FACS washing buffer and analyzed by Flow Cytometry. To analyze binding to CLDN18.2 transfected cells, the RFP positive cells were used for control gating.

human CLDN18.2-mRFP Q29M = human CLDN18.2-mRFP Q29M (human); test: FACS, transfected HEK293, 10 µg/ml antibody;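 further: antibody binding read by flow cytometry with a FITC-labelled anti-human IgG secondary, gated on RFP-positive cells, each mutant signal expressed against wild-type CLDN18.2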
Procedure: as §1

human CLDN18.2-mRFP N37D = human CLDN18.2-mRFP N37D (human); test: FACS, transfected HEK293, 10 µg/ml antibody;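 further: antibody binding read by flow cytometry with a FITC-labelled anti-human IgG secondary, gated on RFP-positive cells, each mutant signal expressed against wild-type CLDN18.2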
Procedure: as §1

human CLDN18.2-mRFP A42S = human CLDN18.2-mRFP A42S (human); test: FACS, transfected HEK293, 10 µg/ml antibody;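 further: antibody binding read by flow cytometry with a FITC-labelled anti-human IgG secondary, gated on RFP-positive cells, each mutant signal expressed against wild-type CLDN18.2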
Procedure: as §1

human CLDN18.2-mRFP N45Q = human CLDN18.2-mRFP N45Q (human); test: FACS, transfected HEK293, 10 µg/ml antibody
Procedure: as §1

human CLDN18.2-mRFP Q47E = human CLDN18.2-mRFP Q47E (human); test: FACS, transfected HEK293, 10 µg/ml antibody
Procedure: as §1

human CLDN18.2-mRFP E56Q = human CLDN18.2-mRFP E56Q (human); test: FACS, transfected HEK293, 10 µg/ml antibody
Procedure: as §1

human CLDN18.2-mRFP G65P = human CLDN18.2-mRFP G65P (human); test: FACS, transfected HEK293, 10 µg/ml antibody
Procedure: as §1

human CLDN18.2-mRFP L69I = human CLDN18.2-mRFP L69I (human); test: FACS, transfected HEK293, 10 µg/ml antibody
Procedure: as §1

human CLDN18.2-mRFP Y36A = human CLDN18.2-mRFP Y36A (human); test: FACS, transfected HEK293, 10 µg/ml antibody;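 further: antibody binding detected by flow cytometry with FITC-labelled anti-human IgG secondary, gated on RFP-positive cells, mutant signal relative to wild-type CLDN18.2-mRFP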
Procedure: as §1
(§2) Subsequently, these plasmids of mutants and wild-type CLDN18.2-mRFP were transfected into HEK293 cell.

human CLDN18.2-mRFP Y46A = human CLDN18.2-mRFP Y46A (human); test: FACS, transfected HEK293, 10 µg/ml antibody;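 further: antibody binding detected by flow cytometry with FITC-labelled anti-human IgG secondary, gated on RFP-positive cells, mutant signal relative to wild-type CLDN18.2-mRFP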
Procedure: as §1, §2

human CLDN18.2-mRFP L49A = human CLDN18.2-mRFP L49A (human); test: FACS, transfected HEK293, 10 µg/ml antibody;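 further: antibody binding detected by flow cytometry with FITC-labelled anti-human IgG secondary, gated on RFP-positive cells, mutant signal relative to wild-type CLDN18.2-mRFP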
Procedure: as §1, §2

human CLDN18.2-mRFP E56A = human CLDN18.2-mRFP E56A (human); test: FACS, transfected HEK293, 10 µg/ml antibody;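 further: antibody binding detected by flow cytometry with FITC-labelled anti-human IgG secondary, gated on RFP-positive cells, mutant signal relative to wild-type CLDN18.2-mRFP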
Procedure: as §1, §2

human CLDN18.2-mRFP E62A = human CLDN18.2-mRFP E62A (human); test: FACS, transfected HEK293, 10 µg/ml antibody
Procedure: as §1, §2

human CLDN18.2-mRFP L69A = human CLDN18.2-mRFP L69A (human); test: FACS, transfected HEK293, 10 µg/ml antibody
Procedure: as §1, §2

human CLDN18.2-mRFP V79A = human CLDN18.2-mRFP V79A (human); test: FACS, transfected HEK293, 10 µg/ml antibody
Sequence of human CLDN18.2-mRFP V79A (human) (chain, as listed by the source V79A V79A limits assumed): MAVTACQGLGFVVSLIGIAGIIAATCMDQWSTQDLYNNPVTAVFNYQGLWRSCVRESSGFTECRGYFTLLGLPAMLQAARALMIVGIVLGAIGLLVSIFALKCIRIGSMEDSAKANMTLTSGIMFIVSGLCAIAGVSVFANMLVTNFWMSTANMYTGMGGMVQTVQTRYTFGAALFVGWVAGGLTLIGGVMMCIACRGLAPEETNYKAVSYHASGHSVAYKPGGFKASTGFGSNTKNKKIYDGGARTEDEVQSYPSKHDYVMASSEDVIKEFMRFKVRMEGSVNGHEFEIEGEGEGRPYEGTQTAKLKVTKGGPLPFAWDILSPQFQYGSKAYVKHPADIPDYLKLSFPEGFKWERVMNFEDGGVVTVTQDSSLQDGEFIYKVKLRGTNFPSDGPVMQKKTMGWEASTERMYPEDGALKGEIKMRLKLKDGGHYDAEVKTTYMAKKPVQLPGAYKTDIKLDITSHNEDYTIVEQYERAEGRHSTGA
Procedure: as §1, §2

Sequence of human CLDN18.2-mRFP L69A (human) (chain, as listed by the source L69A L69A limits assumed): as the sequence (chain, as listed by the source V79A V79A limits assumed) above, with L69A, A79V counted along it
Sequence of human CLDN18.2-mRFP Y46A (human) (chain, as listed by the source Y46A Y46A limits assumed): as the sequence (chain, as listed by the source V79A V79A limits assumed) above, with Y46A, A79V counted along it
Sequence of human CLDN18.2-mRFP L49A (human) (chain, as listed by the source L49A L49A limits assumed): as the sequence (chain, as listed by the source V79A V79A limits assumed) above, with L49A, A79V counted along it
Sequence of human CLDN18.2-mRFP E56Q (human) (chain, as listed by the source E56Q E56Q limits assumed): as the sequence (chain, as listed by the source V79A V79A limits assumed) above, with E56Q, A79V counted along it
Sequence of human CLDN18.2-mRFP Q29M (human) (chain, as listed by the source Q29M Q29M limits assumed): as the sequence (chain, as listed by the source V79A V79A limits assumed) above, with Q29M, A79V counted along it
Sequence of human CLDN18.2-mRFP Q47E (human) (chain, as listed by the source Q47E Q47E limits assumed): as the sequence (chain, as listed by the source V79A V79A limits assumed) above, with Q47E, A79V counted along it
Sequence of human CLDN18.2-mRFP Y36A (human) (chain, as listed by the source Y36A Y36A limits assumed): as the sequence (chain, as listed by the source V79A V79A limits assumed) above, with Y36A, A79V counted along it
Sequence of human CLDN18.2-mRFP E56A (human) (chain, as listed by the source E56A E56A limits assumed): as the sequence (chain, as listed by the source V79A V79A limits assumed) above, with E56A, A79V counted along it
Sequence of human CLDN18.2-mRFP L69I (human) (chain, as listed by the source L69I L69I limits assumed): as the sequence (chain, as listed by the source V79A V79A limits assumed) above, with L69I, A79V counted along it
Sequence of human CLDN18.2-mRFP A42S (human) (chain, as listed by the source A42S A42S limits assumed): as the sequence (chain, as listed by the source V79A V79A limits assumed) above, with A42S, A79V counted along it
Sequence of human CLDN18.2-mRFP E62A (human) (chain, as listed by the source E62A E62A limits assumed): as the sequence (chain, as listed by the source V79A V79A limits assumed) above, with E62A, A79V counted along it
Sequence of human CLDN18.2-mRFP N45Q (human) (chain, as listed by the source N45Q N45Q limits assumed): as the sequence (chain, as listed by the source V79A V79A limits assumed) above, with N45Q, A79V counted along it
Sequence of human CLDN18.2-mRFP G65P (human) (chain, as listed by the source G65P G65P limits assumed): as the sequence (chain, as listed by the source V79A V79A limits assumed) above, with G65P, A79V counted along it
Sequence of human CLDN18.2-mRFP N37D (human) (chain, as listed by the source N37D N37D limits assumed): as the sequence (chain, as listed by the source V79A V79A limits assumed) above, with N37D, A79V counted along it

B1: 59A9-C (antibody, human IgG1, V domains shown)
VH: QITQKESGPGILQPSQTLSLTCSLSGFSLSTYFIGVGWIRQPSGKGLEWLAHIWWNDNKYYNTALKSRLTISKDTSNNQVFLKIASVDTADTATYYCARMGSGAWFTYWGQGTLVTVSA
VL: DIVMTQSPSSLTVTAGEKVTMSCKSSQSLLNSGNQKNYLTWYQQKPGQPPKLLIYWASTRESGVPDRFTGSGSGTDFTLTISSVQAEDLAVYYCQNDYYYPLTFGSGTKLEIK
notes: also called chimeric 59A9
Question: Which results are given for B1?
Answer: EC50 (human CLDN18.2 [1]): 19.1 µg/mL; EC50 (human CLDN18.2 [2]): 1.35 µg/mL; binding percentage vs wild-type CLDN18.2 [3]: 100%; binding percentage vs wild-type CLDN18.2 (human CLDN18.2-mRFP Q29M): 90.4%; binding percentage vs wild-type CLDN18.2 (human CLDN18.2-mRFP N37D): 92.7%; binding percentage vs wild-type CLDN18.2 (human CLDN18.2-mRFP A42S): 90%; binding percentage vs wild-type CLDN18.2 (human CLDN18.2-mRFP N45Q): 65%; binding percentage vs wild-type CLDN18.2 (human CLDN18.2-mRFP Q47E): 87.5%; binding percentage vs wild-type CLDN18.2 (human CLDN18.2-mRFP E56Q): 52.7%; binding percentage vs wild-type CLDN18.2 (human CLDN18.2-mRFP G65P): 85.5%; binding percentage vs wild-type CLDN18.2 (human CLDN18.2-mRFP L69I): 106%; binding percentage vs wild-type CLDN18.2 (human CLDN18.2-mRFP Y36A): 78%; binding percentage vs wild-type CLDN18.2 (human CLDN18.2-mRFP Y46A): 15%; binding percentage vs wild-type CLDN18.2 (human CLDN18.2-mRFP L49A): 2.32%; binding percentage vs wild-type CLDN18.2 (human CLDN18.2-mRFP E56A): 21.9%; binding percentage vs wild-type CLDN18.2 (human CLDN18.2-mRFP E62A): 23.1%; binding percentage vs wild-type CLDN18.2 (human CLDN18.2-mRFP L69A): 54.8%; binding percentage vs wild-type CLDN18.2 (human CLDN18.2-mRFP V79A): 39.1%
